From IntAct's records for PubMed 21139563

B1: Importin-13 (Homo sapiens), O94829 (parent)
chain: MERREEQPGAAGAGAAPALDFTVENVEKALHQLYYDPNIENKNLAQKWLMQAQVSPQAWHFSWQLLQPDKVPEIQYFGASALHIKISRYWSDIPTDQYESLKAQLFTQITRFASGSKIVLTRLCVALASLALSMMPDAWPCAVADMVRLFQAEDSPVDGQGRCLALLELLTVLPEEFQTSRLPQYRKGLVRTSLAVECGAVFPLLEQLLQQPSSPSCVRQKVLKCFSSWVQLEVPLQDCEALIQAAFAALQDSELFDSSVEAIVNAISQPDAQRYVNTLLKLIPLVLGLQEQLRQAVQNGDMETSHGICRIAVALGENHSRALLDQVEHWQSFLALVNMIMFCTGIPGHYPVNETTSSLTLTFWYTLQDDILSFEAEKQAVYQQVYRPVYFQLVDVLLHKAQFPSDEEYGFWSSDEKEQFRIYRVDISDTLMYVYEMLGAELLSNLYDKLGRLLTSSEEPYSWQHTEALLYGFQSIAETIDVNYSDVVPGLIGLIPRISISNVQLADTVMFTIGALSEWLADHPVMINSVLPLVLHALGNPELSVSSVSTLKKICRECKYDLPPYAANIVAVSQDVLMKQIHKTSQCMWLMQALGFLLSALQVEEILKNLHSLISPYIQQLEKLAEEIPNPSNKLAIVHILGLLSNLFTTLDISHHEDDHEGPELRKLPVPQGPNPVVVVLQQVFQLIQKVLSKWLNDAQVVEAVCAIFEKSVKTLLDDFAPMVPQLCEMLGRMYSTIPQASALDLTRQLVHIFAHEPAHFPPIEALFLLVTSVTLTLFQQGPRDHPDIVDSFMQLLAQALKRKPDLFLCERLDVKAVFQCAVLALKFPEAPTVKASCGFFTELLPRCGEVESVGKVVQEDGRMLLIAVLEAIGGQASRSLMDCFADILFALNKHCFSLLSMWIKEALQPPGFPSARLSPEQKDTFSQQILRERVNKRRVKEMVKEFTLLCRGLHGTDYTADY

Variants of: B1
Settings: with mgn_human MAGOH

Variant	effect of a mutation on the interaction
R803E	disrupting interaction
K802E	disrupting interaction
